Experimental data from patent publication US20030045688A1, “Human interleukin-four induced protein” (priority 2000, published 2003).

Legend:
[1] = system: murine B cell line (M.12.4.1); assay: Transfection of murine B cell line with vectors expressing mouse FIG. 1; cell toxicity; type: cell-based; details: clones expressing FIG. 1 in the insoluble cell fraction; no stable transfectants obtained
Source text: A murine B cell line (M.12.4.1) and fibroblast line (NIH3T3) is transfected with vectors expressing mouse FIG. 1. Specifically, a 1985 bp BamHI fragment containing the full length mouse FIG. 1 cDNA is inserted into the BamHI site of the pREP9 vector (InVitrogen, Carlsbad, Calif.), resulting in pMN10-9, a plasmid that expresses FIG. 1 mRNA from the vector's RSV 3′ LTR promoter. A 1930 bp PvuII/EcoRI fragment containing the full length mouse FIG. 1 cDNA is inserted into the Ecl126II/EcoRI sites of pIRES2-EGFP (Clontech), resulting in plasmid mFIG. 1-iGFP (also known as pAFFP), a plasmid that expresses FIG. 1 mRNA from the vector's CMV promoter.
NIH 3T3 cells are transfected with plasmid DNA using the calcium phosphate method. In particular, a Calcium Phosphate Mammalian Cell Transfection Kit (5 Prime→3 Prime, Inc., Boulder, Colo.) or Calcium Phosphate Transfection System (Life Technologies, Inc., Rockville, Md.) is used. A 40 μg plasmid DNA/calcium phosphate precipitate is prepared according to manufacturer's protocol and used to transfect 2×10^6 cells. M12.4. 1 cells are transfected by electorporation or with an Effectene Transfection Reagent (Qiagen, Inc., Valencia, Calif.). […]
During the selection of M.12.1 bulk transfectants, LAAO activity is detected after 15 days, peaking at 17 days, declining after 20 days to undetectable using procedures described above. […]

[2] = FIG. 1 enzyme assay using OPD (L-amino acid oxidase activity); type: biochemical; details: for substrate preference of LAAO activity: L-amino acid substrates; for pH optimum of L-amino acid oxidase (LAAO) activity: pH value at which activity is maximal
Experimental: 3,3′,5,5′-tetramethylbenzidine (TMB) or o-phenylenediamine (OPD) is used as a chromogenic substrate in the FIG. 1 assay. TMB is advantageous because it is not mutagenic and therefore not likely to be carcinogenic, whereas OPD and o-dianisidine are mutagenic.
To perform these measurements, we developed a FIG. 1 enzyme assay using OPD as a substrate.
For the FIG. 1 enzyme assay using OPD, 10 μl of sample is added to a 190 μl assay mixture resulting in a 200 μl reaction with final concentration of 5 to 50 mM L-phenylalanine (Sigma, St. Louis, Mo.), 10 U/ml peroxidase (Sigma), 0.5 mg/ml OPD (Sigma), and 52.5 mM sodium acetate (pH 4). The reaction is incubated for 2 hours at 37° C., after which the reaction is stopped by the addition of 11 μl 36N sulfuric acid (H2SO4). The quantity of H2O2 generated is determined by measuring absorbance at 490 nm. FIG. 1 enzyme activity in Units is determined by comparison with a standard curve generated using known concentrations of H2O2. The amount of H2O2 (μM) corresponding to the observed absorbance at 490 nm is the amount of L-phenylalanine oxidized, since one H2O2 molecule is produced per L-amino acid oxidized. Therefore, FIG. 1 enzyme units can be calculated as follows:
Units (μmol/min)=(μM)/min×V
One unit oxidizes one micromole of L-phenylalanine per minute at 37° C. and pH 4.

[3] = listed as interleukin four induced protein

B1: FIG. 1: mouse immediate early interleukin-four induced protein with L-amino acid oxidase activity (SEQ ID NO:1), expressed in transfected cells (protein, listed as Mus sp.)
chain: MAGLALRLVLAATLLGLAGSLDWKAASSLNPIEKCMEDHDYEQLLKVVTLGLNRTSKPQKVVVVGAGVAGLVAAKMLSDAGHKVTILEADNRIGGRIFTFRDEKTGWIGELGAMRMPSSHRILHKLCRTLGLNLTQFTQYDENTWTEVHNVKLRNYVVEKMPEKLGYNLNNRERGHSPEDIYQMALNKAFKDLKALGCKKAMNKFNKHTLLEYLLEEGNLSRPAVQLLGDVMSEEGFFYLSFAEALRAHACLSDRLRYSRIVGGWDLLPRALLSSLSGALLLNAPVVSITQGRNDVRVHIATSLHSEKTLTADVVLLTASGPALQRITFSPPLTRKRQEALRALHYVAASKVFLSFRRPFWHEEHIEGGHSNTDRPSRLIFYPARGEGSLLLASYTWSDAAAPFAGLSTDQTLRLVLQDVAALHGPVVFRLWDGRGVVKRWAEDPHSQGGFVVQPPLYGREAEDYDWSAPFGRIYFAGEHTALPHGWVETAVKSGLRAAVRINNNYGYGEVDPQMMEHAYAEANYLDQYPEGERPEEQQAREEVSPDEQEPSHKHLLVETSPEGQQHAFVEAIPELQGHVFVETVPQEKGHAHQNIYPSEHVQVHGEVIPEWHGHGGSGTPQMHRVGDHS
For B1, the “cell death in FIG. 1 transfectants” value [1] was “significant cell death”, the “substrate preference of LAAO activity” value [2] was “prefers aromatic amino acids as a substrate, with phenylalanine (Phe) being the optimal substrate” and the “substrate preference of LAAO activity” value ([2]; listed as FIG. 1 protein) was “prefers aromatic L-amino acids for substrates, particularly L-phenylalanine”. The “substrate preference of LAAO activity” value [2, 3] was “lesser specificity for other aromatic amino acids such as tyrosine and tryptophan”, the “LAAO activity at pH values other than the optimum” value ([2]; compared with pH 4.0) was “lower activity at pH 5, 8 and 9” and the “pH optimum of L-amino acid oxidase (LAAO) activity” value (from here on “pH optimum of L-amino acid oxidase”) [2] was 4. For the same molecule, the “pH optimum of L-amino acid oxidase” value ([2]; listed as FIG. 1 protein) was 4 and the “pH optimum of L-amino acid oxidase” value [2, 3] was 4.0.
